Test results: the nanobody polyreactivity screen of Harvey et al. (2022)

Experiment: yeast display, Sf9 membrane polyspecificity reagent, FACS + sequencing; frameworks hold sequencing errors
Method in brief: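 After 36–48 hours of galactose induction, yeast (Saccharomyces cerevisiae BJ5465) displaying a synthetic nanobody library were stained at 4 °C for 1 hour with 10% biotinylated, detergent-solubilized Sf9 membrane reagent. Streptavidin microbeads enriched the stained cells before FACS sorting into low and high (top ~1%) gates on anti-HA and streptavidin fluorescence. Each clone's polyreactivity label reflects its gate of origin.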

Sequence	polyreactivity (PSR sort gate)
QVQIVESGGGLDQAGGSLRLSCADSGSILYYYAMGCYRQAPGKETELVATITDSGDSTYYADSVKGRFTISRDNAKNTVYLQMNSLKPEDTAVYYCAAEGRYFYFTVKMDYWGQGTQVTVSS	low polyreactivity
QVQLQESVGGLVQAGGSLRLSCAASGTIFRISDMGSYRQAPGKEREFVAAITYGANTYYADSGKGRFTISRDNAKNTVYLQMNSLKPEDTAVYYCAVPPVKETILDYWGQGTQVTVSS	low polyreactivity
QVQLVESGGGLVQAGGSLRLSCAASGRTFYYNAMGWYRQAPGKERELVAAISSRGGNTYYADSVKGRFTISRDNAKNTVYYQMNSLKPEDTAVYYCARRYPYPAYEYGYWGQGTQVTVSS	high polyreactivity
QVQLVESGGGLVQAGGSLRLICAASGSIFLHYGMGWYRQAPGKERELVAAISWRCRSTYYADSVKGRFTISRDNAKNTVYLQMNSLKPEDTAVYYCNAEYAFPLSGSGYWGQGTQVTVSS	low polyreactivity
QVQLVESGGGLVQAGGSLRLSCAASGNAMGWYRQAPGKERELVAAITRRGGSTYYADSVKGRFTISRDNAKNTVYLQMNSLKPEDTAVYYCAAENPSYNLCYGYWGQGTQVTVSS	low polyreactivity
QVQLVESGGGLVQAGGSLRLSCAASGFILRRYTMGWYRQAPGKEREFVAGISWRGGSTYYADSVKGRFTISRDNAKNTVYLQMNSLKPEDTAVYYCAAETYQLTWVLYYYWGQGTQVTVSS	high polyreactivity
QVHLVESGGGLVQAGGSLRLSCAASGSIYVNTMGWYRQAPGKDRELVAGISRSTGRTYYADSVKGRFTISRDNAKNTVYLQMNSLKPEDTAVYYCNTVPWRRWGYDYWGQGTQVTVSS	high polyreactivity
QVQLVESGGGLVKAGGSLRLSCAASGRIFWHNAMGWYRQAPGNERELVAAITGGGSTYYADSVKGRFTISRDNAKNTVYLQMNSLKPEDTAVYYCATLGSLRYYWPGYDYWGQGTQVTVSS	low polyreactivity
HVQLVESGGGLVQAGGSLRLSCAASGSTFKRYAMGGDRQAPGKEREFVAGISWRGGSTYYADSVKGRFTISRDNAKNTVYLQMNSLKPEDTAVYFCAARSFSNIGYHGYGYWGQGTQVTVSS	high polyreactivity
QVQLVESGGGLVQAGGSLRLSCAASGRIFDGYVMGWYRQAPGKERELVAAISASGGSTYYADSVKGRFTISRDNAKNTVYLQMNSLKPEDTAVYYCATDALYGYDYWGQGTQVTVSS	high polyreactivity
QVQLVESGGGLVQAGGSLRLSCAASGSIFARYAMGWYRQAPGKERELVAAITYSGGSTYYADSVKGRFTISRYNAKNTVYLQMNSLKPEDTAVYYCALRSGYGRWYPYDYWGQGTQVTVSS	high polyreactivity
QVQLVESGGGLVQAGGSLRLSCAASGSTFNTYAMGWYRQAPGKERELVASIRLRGGSTYYADSVKGRFTISRDNAKNTVYLQMNSLKPEDTAVYYCAARTWPWVLGGTQDDYWGQGTQVTVSS	low polyreactivity
QVQLVESGGGLVQAGGSLRLSCAASGSIFPDNAMGWYRQAPGKERELVAAITRGGSTYYADSVKGRFTISRDNAKNTVYLQMNSLKPEDTAVYYCAARRRYLWSYDYWGQGTQVTVSS	high polyreactivity
QVQLVESGGGLVQAGGSLRLSCAASGFTFSYNTMGWYRQAPGKERELVAAISRSGGRTYYADSVKGRFTISRDNAKNTVYLQMNSLKPEDTAVYYCARYSVTGYGANSGPEMDYWGQGTQVTVSS	high polyreactivity
QVQLVESGGGLVQAGGTLRLSCAASGITLKLYVMGWYRQAPGKERELVAAISRRGGSTYYADSVKGRFTLSRDNAKYTVYLQMISLKPEDTAVYYCAKDGTQYERKDPAYGYWGQGTQVTVSS	high polyreactivity
QVQLVESGGGLVQAGSSLRLSCAASGGTFYINTKGWYRKAPGKERELVATITIVVSTKYADSVKGRFTISRDNAKNTVYLQMNSLKPEDTAVYYCAKDDVYRDSYLVFDGEMDYWGQGTQVTVSS	low polyreactivity
QVQLEESGGGLVQAGGSLRLSCAASGGIFLGYAMGWYRQAPGTERELVAAISDSGGSTDYADSVKGRFTISRDHAKTTVYLQTHSLKPDDTAVYYCAAERRSTAGWLYDYWGQGTQVTVSS	high polyreactivity
QVQLVESGGGLVQAGGSLRLSCAASGSIFRYYAMGWYRQAPGQERELVAAISRRGSSTYYADSVKGRFTISRDNAKNTVYLQLNSLKPEDTAVYYCAARSRHSGLTQPTLDYWGQGTQVTVSS	high polyreactivity
QVQLVESGGGLVQAGSSLRLSCAASGSTYAFYALGWYRQAPGKAMELVDAITSGGTTNYADSVKGRFTISRDNAKNTVYFQMISLKPEDTAVYYCNAYYLGWYRVRAVTGYDYWGQGTQVTLSS	low polyreactivity
QVQLVESGGCLVQAGGRLRLSFAASGLTFEQYAMGWYRQAPGKERELVPAISRRGTSTYYADSVKGRFTISRDNAKNTVFLQMNSLKPEDTAVYYCNAGWWYLGSPFDRDYWGQGTQVTVSS	high polyreactivity
QVHLVESGGGLVQAGGSLRLSCAASGRTFIYYAMGWYRQAPGKERELVASITTGGRTYYADSVKGRFTISRDNAKNTVYLQMNSLKPEDSAVYYCAAEPHFFWYYHYVYGEHDYWGQGTQVTVSS	high polyreactivity
QVQLVESGGGLVQAGGSLRLSCAASGRIFQTYAMGWYRQAPGKERDLVASITSGVDTYYADSVKGRFTISRDNAKNTVYLQMNSLKPEDNAVYYCAAEPYRTVTAYRYSLYWYNYWGQGTQVTVSS	high polyreactivity

Sequence	polyreactivity (PSR sort gate)
QVQLVESGGGLVQAGGSLRLSCAASGIIFTYAMGWYRQAPGKERELVAAIDWRGGRTYYADSVKGRFTISRDNAKNTVYLQMNSLKPEDTAVYYCAARLPGGTYYWGQGTQVTVSS	high polyreactivity
QVQLVESGGGLVQAGGSLRLSCAASGRTFLIYAMGWYRQAPGKERELVAAITSGGRTKYADSVKGRFTISRDNAKYTVYLQMNSLKPEDTAVYYCAARTGVYRYSRKFDYWGQGTQVTVSS	high polyreactivity
QVQLVESGGGLVQAGGSLRLSCAASGSIFRYNAMGWYRKAPGKEREFVAIISYSGVRTYYADSVKGRFTISRDNAKNTVYLQMNSLKPEDTAVYYCAADFKQKGHRTRTTYWGQGTKVTVSS	high polyreactivity
QVKLVESGGGLVQAGGSLRLSCAASGSIVVRYTMGWYRQAPGKERELVAAIYWGGGSTYYADSVKGRFTISRDNAKNTVYLQMNSLKAEDTAVYYCKKRYILLYDYWGQGTQVTVSS	low polyreactivity
QVQLVESGGGLVQAGGSLRLSCAASGSTIYGYAMGWYRQAPGKERELVAAISWSGGRTYYADSVKGRFTISRDNAKNTVYLQMNSLNPVDTAVYYCNTLRRLTGRYGWSSKYYYWGQGTQVTVSS	high polyreactivity
QVQLVESGGGLVQAGGSLRLSCAASGRIFRRNAMGWYRQAPGKEREFVATITSGGSTFYADSVKGRFTISRDNAKNTVYLQMNSLKPEDTAVYYCAAPSYNTPFHTPNYSWGQGTQVTVSS	low polyreactivity
QVQLVESGGGLVQAGGSLRLSCAASGSTLDRYVMGWYRQAPGKERELVAAISRNGGSTYYADSVKGRFTISRDNAKNTVYLQMNSLKPEDTAVYYCARYAGFPYTQGDYWGQGTQVTVSS	high polyreactivity
QVQLVESGGGLVQAGGSLRLSCAASGFTIRRYAMGWYRQAPGKERELVAAITTGGSTYYADSVKGRFTISRDNAKNTVYLQMNSLKPEDTAVYYCAALYPYKQYRLGYDSWGQGTQVTVSS	high polyreactivity
QVQLVESGGGLVQAGGSLRLSCAASGSIFRYYAMGWYRQAPGKERELVANISRGGRTYYADSVKGRFTISRDNAKYTVYLQLHSLNPEDTSVYYCAAGYWFSYSRVTRYDYWGQGTQVTVSS	high polyreactivity
QVKLVESGGGLVQAGGSLRLSCDASGSTFIANTMGWYRQAPGKERELVAAITDSGGSTYYADSVKGRFTISRDNAKNTVYLQMNSLKPEDTAVYYCNADYVYVFIRAWSYDYWGQGTQVTVSS	low polyreactivity
QVQLVESGGGLVQAGGSLRLSCAASGSTFGRNAMGWYRQAPGKERELVAAINWSDGSTHYADSVKGRFTISRDNAKNTVYLQMNSLKPEDTAVYYCAADAWSWPVDYNYWGQGTQVTVSS	low polyreactivity
QVQLVESGGGLVQAGGSLRLSCAASGVTFAHNAMGWYRQAPGKERELVAAITRSGGSTYYADSVKGRFTISRDNAKNTVYLQMNSLKPEDTAVYYCIAGRRGSGYGYWGQGTQVTVSS	high polyreactivity
QVQLVESGGGLVQAGGSIRLSCAASGSTFKTYVMGWYRQAPGKERELVAAISFSDGTTYYADSVKGRFTISRDNAKNTVYLQMNSLKPEDTAVYYCAAEGYQSQYDYWGQGTQVTVSS	high polyreactivity
QVQLVESGGGLVQAGGSLRLSCAASGSTFSRYAMGWYRQAPGKERELVAAISSRGGSTYYADSVKGRFTISRDNAKNTVYLQMNSLKPEDTAVYYCNALTSYQNHVYPYDYWGQGTEVTVSS	high polyreactivity
QVQLVESGGGLVQAGGSLRLSCAASGSIFIYYAMGWYRQAPGKEREFVAAISYSDGDTYYADSVKGRFTISRDNAKNTVYLQMNSLKPEDTAVYYCAAEVPQYYDVGWEDHWGQGTQVTVSS	high polyreactivity
QVHLVESGGGLVQAGGSLRLSSAASGFICYQYAMGWYRQAPGKERELVAAISRRGGGTYYADSVKGRFTISRDNAKNTVYLEMNRLKPEDTAVYYCNTDRLGRITFGGYDYWGQGTQVTVSS	high polyreactivity
QVQLVESGGGLVQAGGSLRLSCAASGSIFWGYAMGWYRQAPGKERELVAAISSSGGNTYYADSVKGRFTISRDNAKNTVYLQMNSLKPEDTAVYYCAATPEFYGGKITDVYSQYGYWGQGSQVTVSS	low polyreactivity
QVQLVESGGGLVQAGGSLRLSCAASGGAFRYYTMGWYRPAPGKDRELVASISGGGRTYYADSVKGRFTISRDNAKNSVYLQMNSLKPEDTAVYYCNARNRVYYTMSGFGYLGQGTQVTVSS	high polyreactivity
QVHLVESGGGLVQAGGSLRLSCAASGRNFYTNVMGWSRQAPGKERELVAAISSGGGTTYYADSVKGRFTISRDNAKNTVYLQMNSLKPEDTAVYYCAADALSDEYDYWGQGTEVTVSS	low polyreactivity
QVQLVESGGGLVQAGGSLRLSWAASGFTFTSYTMGWYTPAPGKERELVAAISNTGGSTYYADSVKGRFTISRDNAKNTVYLQMNSLKPEDTAVYYCAARTHTYGKFWRYYWGQGTQVTVSS	low polyreactivity
QVQLVESGGGLVQAGGSLRLSCAASGSIFLAYAMGWYRQAPGKEREFVAAISFSDGSTYYADSVKGRFTISRDNAKNTVYLQMNSLKPEDTAVYYCNKGASPVDYDYWGQGTQVTVSS	low polyreactivity
